{"source": "patent US9200265B2", "about": "“Anti-cocaine compositions and treatment” (priority 2006, dated 2015)", "molecules": {"B1": {"name": "CocE: wild-type cocaine esterase of Rhodococcus sp. MB 1, SEQ ID NO: 1, Accession No. AF173165 (protein)", "chain": "MVDGNYSVASNVMVPMRDGVRLAVDLYRPDADGPVPVLLVRNPYDKFDVFAWSTQSTNWLEFVRDGYAVVIQDTRGLFASEGEFVPHVDDEADAEDTLSWILEQAWCDGNVGMFGVSYLGVTQWQAAVSGVGGLKAIAPSMASADLYRAPWYGPGGALSVEALLGWSALIGTGLITSRSDARPEDAADFVQLAAILNDVAGAASVTPLAEQPLLGRLIPWVIDQVVDHPDNDESWQSISLFERLGGLATPALITAGWYDGFVGESLRTFVAVKDNADARLVVGPWSHSNLTGRNADRKFGIAATYPIQEATTMHKAFFDRHLRGETDALAGVPKVRLFVMGIDEWRDETDWPLPDTAYTPFYLGGSGAANTSTGGGTLSTSISGTESADTYLYDPADPVPSLGGTLLFHNGDNGPADQRPIHDRDDVLCYSTEVLTDPVEVTGTVSARLFVSSSAVDTDFTAKLVDVFPDGRAIALCDGIVRMRYRETLVNPTLIEAGEIYEVAIDMLATSNVFLPGHRIMVQVSSSNFPKYDRNSNTGGVIAREQLEEMCTAVNRIHRGPEHPSHIVLPIIKR", "modifications": "Rhodococcus sp. MB1"}}, "key": {"[1]": {"assay": "Melting temperature by circular dichroism (near-UV)", "assay_type": "physicochemical", "experimental": "Plasmids containing the mutations were transformed into E. coli BL21 cells and IPTG-induced enzyme was purified on Ni-Agarose. Expressed proteins were then tested for enzymatic activity and for thermostability at 37° C. Enzyme activity was measured using the spectrophotometric assay as described in Example 1. Thermostability was also tested via the spectrophotometric assay by pre-incubation of both wild-type and mutants at 37° C. for various times. Additionally, the nature of the thermo-instability of both the wild-type and T172R mutant was analyzed by polyacrylamide gel electrophoresis under denaturing and non-denaturing conditions. Briefly, mutant and wild-type enzyme at 0.1 mg/ml were incubated at 37° C. for various time-points, cooled to 4° C., mixed with SDS-loading dye containing-mercaptoethanol and run on 10% SDS-PAGE gels (denaturing conditions) or run on native 10% polyacrylamide gels (non-denaturing conditions) at 4° C. Gels were fixed with 10% methanol, 7% acetic acid for 30 minutes, and then stained with Sypro-Ruby protein gel stain (Molecular Probes, Invitrogen) for 3 hours. Protein staining was visualized under UV-light using an AlphaImager™ 3400 (Alpha Innotech). Finally, the exact melting temperature of both the wild-type and T172R mutant were determined by circular dichroism using a JASCO-810 spectropolarimeter driven by a JASCO V500/FP-750 analysis program for Windows. The CD spectra were measured in millidegrees and normalized against PBS buffer."}, "[2]": {"assay": "Cocaine spectrophotometric assay (240 nm), Michaelis-Menten kinetics"}, "[3]": {"assay": "Decay of CocE activity in plasma at 37° C. or after intravenous administration into a mouse", "assay_type": "in vitro ADME", "conditions": "incubation in plasma at 37° C., or after intravenous administration into a mouse"}, "[4]": {"assay": "Low-UV CD spectra melt with CCA deconvolution", "assay_type": "physicochemical", "conditions": "for #3 formation: accumulation of the fully melted protein; for #1 melt: initial spectra melts, 0.2 mg/ml; for #2 melt: melt of the intermediate state", "experimental": "Low-UV CD spectra data were obtained using an Aviv Spectropolarimeter Mode 400, with the help of Norma Greenfield, UMDNJ, using a 5-cell holder and 0.2 mg/ml protein concentrations. Raw data values obtained were blanked on control PBS, smoothed, and deconvoluted using the CCA algorithm as described by A. Perczel, K. Park, and G. D. Fasman, [Analysis of the circular dichroism spectrum of proteins using the convex constraint algorithm: a practical guide. Analytical Biochemistry 203, 83-93 (1992).] This algorithm finds the minimum number of curves needed to reconstruct a data set, and expresses the percentage each curve contributes to the data set as a function of temperature.\nBelow is presented a low UV CCA denconvolution analysis of CocE WT and 4 mutants, obtained in a single CD spectra melt using a 5-cell holder. The experiment was performed over the period of 8 hours, from 0-80° C.\nTemperature dependent melting was observed between the wavelengths tested (200-250 nm), and the smoothed spectra for each mutant are shown in FIG. 29. […] Dose response analysis was used to approximate the temperature at which the initial spectra melts (1), the formation and melt of the intermediate state (2), and the accumulation of the fully melted protein (3)."}, "[5]": {"conditions": "purified wild-type, cocaine, PBS pH 7.4"}}}
{"molecule": "B1", "values": [{"measurement": "detectable denaturation beginning", "setting": "[1]; near-UV CD", "value": "approximately 30 °C"}, {"measurement": "melting temperature", "setting": "[1]; near-UV CD (260-320 nm), curve-fitting", "value": 36.15, "unit": "°C"}, {"measurement": "Km", "setting": "[2]; 40 min @ 37° C.", "value": 12.3, "unit": "µM"}, {"measurement": "Km", "setting": "[2]; no preincubation", "value": 71.8, "unit": "µM"}, {"measurement": "Kcat", "setting": "[2]; [5]", "value": "approx. 500 min^−1"}, {"measurement": "Km", "setting": "[2]; [5]", "value": "~2", "unit": "µM"}, {"measurement": "decay of CocE activity", "setting": "[3]", "value": "> 50", "unit": "%"}, {"measurement": "#3 formation", "setting": "[4]", "value": 59, "unit": "°C"}, {"measurement": "#3 formation", "setting": "[4]; listed as WT", "value": 59.86, "unit": "°C"}, {"measurement": "#2 formation", "setting": "[4]; formation of the intermediate state", "value": 34.57, "unit": "°C"}, {"measurement": "#1 melt", "setting": "[4]", "value": 37, "unit": "°C"}, {"measurement": "#1 melt", "setting": "[4]; listed as WT", "value": 37.04, "unit": "°C"}, {"measurement": "#2 melt", "setting": "[4]", "value": 50, "unit": "°C"}, {"measurement": "#2 melt", "setting": "[4]; listed as WT", "value": 50.98, "unit": "°C"}]}
